Experimental data published in article PMC2148200.
pKd: −log10 of the molar value.

Columns and labels:
TGF-β1 = test: ELISA
[1] = molecular target: human recombinant BMP-2 (human) (UniProt P12643); test: ELISA
Chain of human recombinant BMP-2 (human) (P12643 283-396): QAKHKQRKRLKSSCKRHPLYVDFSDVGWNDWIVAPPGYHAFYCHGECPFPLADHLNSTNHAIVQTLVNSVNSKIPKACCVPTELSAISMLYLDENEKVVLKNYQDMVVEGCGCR

## recombinant human type IIA procollagen NH2-propeptide (rhIIA-GST, exon 2-GST fusion protein) (domain or fragment)
TGF-β1
  pKd: 8.12
[1]
  pKd: 8.28
